From patent US9707274B2, “Methods for preventing and treating post-traumatic stress disorder (PTSD)” (priority 2007, dated 2017)
No end group written: not given here.

Columns and labels:
α-adrenergic = details: topical nasal application; cited from earlier work
[1] = test system: human brain muscarinic cholinergic receptor; details: in vitro; cited from earlier work
[2] = rat, in vivo
Experimental: Both vasoconstricting agents are α-adrenergic agonists with short duration of action (4-6 hours). The therapeutic compound selected was hypocretin-1 (HC, MW 3500), a peptide with therapeutic potential for treating narcolepsy. In addition to determining the effect of vasoconstrictors on the intranasal delivery of hypocretin-1 to the CNS, peripheral tissues and blood, vasoconstrictor effects on the drug targeting index (DTI) were also examined.
Thirty minutes following onset of intranasal delivery, rats were perfused with saline and fixed with 4% paraformaldehyde. […] The DTI for each tissue was calculated by dividing the ratio of mean tissue concentration to blood area under the curve (AUC) of the vasoconstrictor group by the ratio of mean tissue concentration to blood AUC of the control group. DTI>1.0 indicated a drug targeting advantage with the vasoconstrictor.

[3] = design: species or system rats; details: rat, in vivo
Excerpt: Incorporation of at least one vasoconstrictor in a nasal formulation including at least one therapeutic compound, i.e., a pharmaceutical composition, enhances intranasal therapeutic compounds targeting of therapeutics to, inter alia, the CNS, meninges and lymphatics by reducing absorption into the blood, increasing concentrations in, inter alia, the CNS, or both. […] Inclusion of a vasoconstrictor in the intranasal formulation (IN PHE) further enhances brain targeting of HC compared to the intravenous delivery from the previous study (Table 2, IN PHE vs. IV). In addition, compared to intranasal delivery with no additives, intranasal administration of HC in combination with 1% PHE further enhances intranasal drug targeting to the brain, with increased targeting to the olfactory bulbs (7-fold increase), anterior olfactory nucleus (2-fold increase), frontal cortex (2-fold increase), hippocampus (2-fold increase), and hypothalamus (2-fold increase) (Table 2, IN PHE vs. IN). 1% PHE also enhances intranasal drug targeting to the superficial and deep cervical lymph nodes (5 to 6-fold) and to the meninges surrounding the brain (2-fold). Therefore, inclusion of a vasoconstrictor in an intranasal formulation is a novel strategy to further enhance intranasal drug targeting to the brain and lymphatics compared to other routes of administration. […]

[4] = Data set 1: tissue and blood distribution of intranasal HC with and without 1% PHE (pretreatment intervals 0, 5, 15 min merged); format: in vivo, rats
Excerpt: We investigated whether incorporation of a vasoconstrictor (phenylephrine, PHE) in the nasal formulation enhances drug targeting of an intranasally applied neuropeptide (hypocretin-1, HC) to the brain in rodents. Several factors may effect CNS concentrations of HC following intranasal administration of HC in the presence of PHE, including the dose of vasoconstrictor, the time after intranasal delivery, and the pretreatment time interval. PHE is commonly used at a dose of 1% for nasal decongestion and topical nasal application of PHE results in a rapid onset of action and duration of action of approximately 4 hours. Ideally, it would be preferred to have a nasal formulation where the vasoconstrictor and CNS drug are administered together, without the need for pretreatment of the nasal cavity with vasoconstrictor. Clearly this would be more convenient than having to intranasally pretreat, wait a period of time (5 min or 15 min), and then intranasally administer the CNS drug with additional vasoconstrictor. However, waiting a short period of time may be a necessary step to allow the vasoconstrictor to activate adrenergic receptors located on blood vessels in the nasal cavity to result in constriction. Thus, in these experiments, three pretreatment time intervals were investigated: 0 min (or no pretreatment), 5 min, 15 min, to determine the time interval necessary to wait to allow the intranasally applied 1% PHE to take effect. Anesthetized rats were sacrificed at 30 minutes following intranasal delivery of HC and 1% PHE, since typically high brain concentrations are achieved within 25-30 minutes of intranasal administration.
One-way ANOVAs comparing tissue concentrations in the three groups from the PHE-treated animals were also performed. […] Thus, the therapeutic compound(s) and vasoconstrictor(s) may be combined in a pharmaceutical composition while retaining full therapeutic benefit of the present invention. […] As a result, data obtained from control animals with different pretreatment time intervals were merged and data obtained from PHE-treated animals with different pretreatment time intervals were merged. Statistical comparisons were made between tissue concentrations in control animals (n=28) and PHE-treated animals (n=23).

[5] = test system: saliva and plasma cortisol response; details: general intranasal insulin 40 IU, 26 normal adult men, placebo controlled; cited from earlier work
[6] = cited from earlier work

CNC[C@H](O)c1cccc(O)c1 [PHE, phenylephrine]
Duration of action (α-adrenergic): approximately 4 hours

O=P(O)(O)OP(=O)(O)O [pyrophosphate]
Concentration protecting the receptor from inactivation by oxidants such as heme [1]: 1-5 μm

hypocretin-1 (QPLPDCCRQKTCSCRLYELLHGAGNHAAGILTL; ends and bridges not checked; also: 125I label, site not given here; UniProt O43612 34-66, looked up) [HC]
Respiration during intranasal delivery [2]: did not lead to any improvement in respiration
Respiratory distress in animals during intranasal delivery [2]: fewer incidences of respiratory distress
HC drug targeting, enhancement to the meninges surrounding the brain [3]: 2 fold
Concentration of HC, Trigeminal Nerve ([4]; intranasal HC + 1% PHE, rats, 30 min): 1.71 ± 0.15 nM
Concentration of HC, Medulla ([4]; intranasal HC control (no PHE), rats, 30 min): 1.26 ± 0.22 nM
HC targeting (tissue-to-blood ratio), 1% PHE vs control, trigeminal nerve ([4]; rat, in vivo): not significantly different
HC targeting (tissue-to-blood ratio), increase with 1% PHE vs control, anterior olfactory nucleus ([4]; rat, in vivo): 2.4 fold
HC targeting (tissue-to-blood ratio), increase with 1% PHE vs control, cerebellum ([4]; rat, in vivo): 1.7 fold
HC targeting (tissue-to-blood ratio), increase with 1% PHE vs control, deep cervical lymph nodes ([4]; rat, in vivo): 5.7 fold
HC targeting (tissue-to-blood ratio), increase with 1% PHE vs control, dorsal meninges ([4]; rat, in vivo): 1.7 fold
HC targeting (tissue-to-blood ratio), increase with 1% PHE vs control, frontal cortex ([4]; rat, in vivo): 2.3 fold
HC targeting (tissue-to-blood ratio), increase with 1% PHE vs control, medulla ([4]; rat, in vivo): 1.7 fold
HC targeting (tissue-to-blood ratio), increase with 1% PHE vs control, midbrain ([4]; rat, in vivo): 1.7 fold
HC targeting (tissue-to-blood ratio), increase with 1% PHE vs control, olfactory bulbs ([4]; rat, in vivo): 6.8 fold
HC targeting (tissue-to-blood ratio), increase with 1% PHE vs control, superficial cervical lymph nodes ([4]; rat, in vivo): 5.7 fold
HC targeting (tissue-to-blood ratio), increase with 1% PHE vs control, ventral meninges ([4]; rat, in vivo): 2.9 fold

insulin
Saliva and plasma cortisol response to the Trier Social Stress Test [5]: significantly diminished
Memory, attention and functioning in Alzheimer's patients ([6]; intranasal insulin over a 21 day period): improve memory, attention and functioning
Blood levels of insulin or glucose ([6]; intranasal insulin treatment, healthy adults): no change
Memory in healthy adults ([6]; intranasal insulin treatment): improves memory
Memory in patients with Alzheimer's disease ([6]; intranasal insulin, twenty minutes after a single treatment): improve memory
